We go through 3 substances from patent publication US20100092484A1.

The target of experiment [1] is human CD44 (on cells) (human) (UniProt P16070). Kind of experiment: cell-based or functional assay.
Experiment [2] deals with cynomolgus CD44 (on cells) (cynomolgus monkey). Kind of experiment: cell-based or functional assay.
Experiment [3] addresses human CD44-IgG1 fusion protein (extracellular domain of human CD44 fused to human IgG1) (human). Kind of experiment: ELISA: antibody pre-mixed with human CD44-Ig (0.6 µg/ml); inhibition of CD44-Ig binding to plate-coated hyaluronic acid (HA).
The target of experiment [4] is lymphatic vessel endothelial hyaluronan receptor 1 protein (LYVE-1) (R&D, Cat. No. 2089-Ly) (UniProt Q9Y5Y7). The experiment can be described thus: ELISA on plate-coated LYVE-1 (50 ng), anti-goat IgG-HRP detection. (In an ELISA, binding on a coated surface is turned into a signal by an enzyme label.)
Chain of lymphatic vessel endothelial hyaluronan receptor 1 protein (LYVE-1) (R&D, Cat. No. 2089-Ly) (Q9Y5Y7 24-232 limits assumed): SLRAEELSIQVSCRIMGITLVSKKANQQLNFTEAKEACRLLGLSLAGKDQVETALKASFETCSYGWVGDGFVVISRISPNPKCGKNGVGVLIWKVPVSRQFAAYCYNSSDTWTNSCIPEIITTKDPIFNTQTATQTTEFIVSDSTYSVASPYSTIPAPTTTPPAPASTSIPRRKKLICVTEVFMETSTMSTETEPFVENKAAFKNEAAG

Chain of human CD44 (on cells) (human) (P16070 other isoform, or with tags, fused parts or gaps limits assumed): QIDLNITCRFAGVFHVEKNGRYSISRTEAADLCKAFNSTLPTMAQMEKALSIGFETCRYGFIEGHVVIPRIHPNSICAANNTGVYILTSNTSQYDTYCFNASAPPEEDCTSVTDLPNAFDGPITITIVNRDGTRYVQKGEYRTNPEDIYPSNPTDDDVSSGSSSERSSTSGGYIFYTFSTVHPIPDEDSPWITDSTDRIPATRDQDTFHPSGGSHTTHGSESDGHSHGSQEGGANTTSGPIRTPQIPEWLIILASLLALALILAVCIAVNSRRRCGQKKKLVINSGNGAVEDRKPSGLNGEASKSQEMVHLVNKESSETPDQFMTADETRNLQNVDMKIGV
Chain of human CD44-IgG1 fusion protein (extracellular domain of human CD44 fused to human IgG1) (human) (chain, as listed by the source limits assumed): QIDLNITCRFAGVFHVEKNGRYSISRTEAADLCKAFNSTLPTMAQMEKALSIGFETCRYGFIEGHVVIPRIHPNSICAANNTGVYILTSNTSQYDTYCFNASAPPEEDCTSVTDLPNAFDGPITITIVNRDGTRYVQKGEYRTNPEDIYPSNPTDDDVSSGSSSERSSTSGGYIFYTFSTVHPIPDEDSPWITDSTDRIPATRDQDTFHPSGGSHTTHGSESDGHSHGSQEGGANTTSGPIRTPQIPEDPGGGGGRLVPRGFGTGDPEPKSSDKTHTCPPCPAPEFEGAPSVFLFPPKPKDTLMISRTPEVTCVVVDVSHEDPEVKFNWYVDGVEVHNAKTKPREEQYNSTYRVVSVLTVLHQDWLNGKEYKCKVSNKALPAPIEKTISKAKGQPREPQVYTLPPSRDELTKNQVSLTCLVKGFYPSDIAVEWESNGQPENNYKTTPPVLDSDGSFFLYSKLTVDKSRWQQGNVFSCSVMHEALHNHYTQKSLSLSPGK
Chain of cynomolgus CD44 (on cells) (cynomolgus monkey) (P16070 other isoform, or with tags, fused parts or gaps limits assumed): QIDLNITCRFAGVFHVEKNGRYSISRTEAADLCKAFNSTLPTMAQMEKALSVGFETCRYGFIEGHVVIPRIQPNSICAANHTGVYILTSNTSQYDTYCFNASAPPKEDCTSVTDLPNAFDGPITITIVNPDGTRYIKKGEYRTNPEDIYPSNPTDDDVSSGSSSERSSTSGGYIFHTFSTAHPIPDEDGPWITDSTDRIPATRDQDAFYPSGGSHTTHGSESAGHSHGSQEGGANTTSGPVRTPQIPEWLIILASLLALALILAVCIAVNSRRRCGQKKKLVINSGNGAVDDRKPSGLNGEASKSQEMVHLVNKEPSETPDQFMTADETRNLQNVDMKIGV

For “anti-CD44 antibody IM7 (BD Bioscience, Cat. No. 553134)”, in experiment [1], the IC50 of IL-1β release from purified human PBMC stimulated by HA was found to be 1.62 µg/mL and the IC50 of reduction of CD44 surface expression on human peripheral CD3+ T cells (FACS) was 1.5 µg/mL. The IC50 of reduction of CD44 surface expression on cynomolgus peripheral CD3+ T cells (FACS) in experiment [2] is 9.9 µg/mL. Further, the IC50 in experiment [3] stood at 1.85 µg/mL.
In experiment [1], “anti-CD44 antibody 515 (BD Bioscience, Cat. No. 550990)” had an IC50 of IL-1β release from purified human PBMC stimulated by HA of 1.46 µg/mL. The substance further came in with an IC50 in experiment [3] of 0.32 µg/mL.
With “anti-LYVE-1 antibody (R&D, Cat. No. AF 2089)”, the EC50 in experiment [4] came to 0.1 µg/mL.

As a reminder, the IC50 is the concentration at which inhibition is half-maximal. Higher therefore signals lower potency. One may read the EC50 as the concentration needed to bring the measured effect to its halfway point. Read a low EC50 as a more potent agent.
